# According to patent publication US20060142195:
# B1: modified tissue plasminogen activator with an amino acid sequence according to SEQ ID No. 1 (protein)
# chain: AYGVACKDEITQMTYRRQESWLRPEVRSKRVEHCQCDRGQARCHTVPVKSCSEPRCFNGGTCQQALYFSDFVCQCPEGFAGKCCEIDTRATCYEDQGISYRGTWSTAESGAECTNWNSSALAQKPYSGRRPDAIRLGLGNHNYCRNPDRDSKPWCYVFKAGKYSSEFCSTPACSSTCGLRQYSQPQFHSTGGLFADIASHPWQAAIFAKHRRSPGERFLCGGILISSCWILSAAHCFQERFPPHHLTVILGRTYRVVPGEEEQKFEVEKYIVHKEFDDDTYDNDIALLQLKSDSSRCAQESSVVRTVCLPPADLQLPDWTECELSGYGKHEALSPFYSERLKEAHVRLYPSSRCTSQHLLNRTVTDNMLCAGDTRSGGPQANLHDACQGDSGGPLVCLNDGRMTLVGIISWGLGCGQKDVPGVYTKVTNYLDWIRDNMRP
# Biological target: T1, fibrin, P02671
# T1 chain 1: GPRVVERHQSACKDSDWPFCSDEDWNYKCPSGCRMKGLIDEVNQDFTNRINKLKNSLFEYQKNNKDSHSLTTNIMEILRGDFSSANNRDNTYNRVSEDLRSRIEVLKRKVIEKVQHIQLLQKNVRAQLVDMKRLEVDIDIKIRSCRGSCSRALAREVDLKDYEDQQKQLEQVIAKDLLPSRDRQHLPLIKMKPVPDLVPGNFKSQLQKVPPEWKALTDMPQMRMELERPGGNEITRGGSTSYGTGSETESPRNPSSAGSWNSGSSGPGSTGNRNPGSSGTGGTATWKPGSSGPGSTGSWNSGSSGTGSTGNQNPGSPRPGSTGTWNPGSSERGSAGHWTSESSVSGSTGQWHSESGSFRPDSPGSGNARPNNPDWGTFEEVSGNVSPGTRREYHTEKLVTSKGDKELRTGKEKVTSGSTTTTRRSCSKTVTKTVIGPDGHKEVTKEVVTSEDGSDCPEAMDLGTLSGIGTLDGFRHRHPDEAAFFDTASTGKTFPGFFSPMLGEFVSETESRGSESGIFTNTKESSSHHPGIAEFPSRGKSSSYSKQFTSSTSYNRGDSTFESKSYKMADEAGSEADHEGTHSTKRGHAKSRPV
# T1 chain 2: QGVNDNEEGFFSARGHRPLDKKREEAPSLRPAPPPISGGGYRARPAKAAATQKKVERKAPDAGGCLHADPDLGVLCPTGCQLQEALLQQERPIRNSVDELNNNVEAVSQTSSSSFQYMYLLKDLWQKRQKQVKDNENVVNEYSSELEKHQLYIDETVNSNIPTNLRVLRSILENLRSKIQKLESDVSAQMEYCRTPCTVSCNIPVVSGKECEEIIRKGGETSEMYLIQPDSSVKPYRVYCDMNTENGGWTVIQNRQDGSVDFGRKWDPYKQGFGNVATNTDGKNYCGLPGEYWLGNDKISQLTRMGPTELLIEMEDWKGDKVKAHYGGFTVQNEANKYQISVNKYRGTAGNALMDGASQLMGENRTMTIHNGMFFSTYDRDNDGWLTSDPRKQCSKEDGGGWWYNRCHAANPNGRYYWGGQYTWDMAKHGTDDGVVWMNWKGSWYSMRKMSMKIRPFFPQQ
# T1 chain 3: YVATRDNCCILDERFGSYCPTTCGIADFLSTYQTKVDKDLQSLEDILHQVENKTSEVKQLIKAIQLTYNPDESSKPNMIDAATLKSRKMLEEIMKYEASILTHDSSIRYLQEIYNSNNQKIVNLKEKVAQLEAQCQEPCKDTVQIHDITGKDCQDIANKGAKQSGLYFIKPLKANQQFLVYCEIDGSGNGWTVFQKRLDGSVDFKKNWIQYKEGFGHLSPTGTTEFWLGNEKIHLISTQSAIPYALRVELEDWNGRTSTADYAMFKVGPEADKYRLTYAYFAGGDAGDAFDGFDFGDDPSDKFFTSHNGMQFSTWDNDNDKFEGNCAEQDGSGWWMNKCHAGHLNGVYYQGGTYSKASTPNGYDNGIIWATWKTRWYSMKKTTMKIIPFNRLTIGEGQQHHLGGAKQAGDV
protein,measurement,value
B1,fibrin specificity (semi quantitative tests),showed a increased fibrin specificity in comparison to the wild type t-PA
